Experiment [1] addresses T1, SARS-CoV-2 spike protein receptor binding domain (RBD2) (SARS-CoV-2, UniProt P0DTC2 319-537). Description: SPR, immobilized antibody, RBD injected, 1:1 fit. Background: In SPR one partner is held on a chip, and binding of the other changes the refractive index at the surface.
In experiment [2] the target is T1, SARS-CoV-2 spike protein receptor …. Put plainly: SPR.
Experiment [3] deals with SARS-CoV spike protein receptor binding domain (RBD1) (SARS-CoV, UniProt P59594 306-527). Put plainly: ELISA, crude human minibody.

Positions count from the first letter of the chain named.

B1: R09 minibody (scFv-Fc) (Fc fusion)
chain: QPGLTQPPSVSVSPGQTASITCSGDKLGYKYVSWYQQKPGQSPVLVIYEDTKRPSGIPKRFSGSNSGNTATLTICGTQAVDEADYYCQAWDSSVVFGGGTKLTVLSGGSTITSYNVYDTKLSSSGTQVQLVQSGAEVKKPGASVKVSCKASGYTFTSYGISWVRQAPGQGLEWMGWISAYNGNTNYAQKFQGRVTMTTDTSTSTAYMELRSLRSDDTAVYYCARDMELRPPFDYWGQGTLVTVSS
By Kd is commonly meant the concentration at which binding is half-saturated. For the molecule B1, the Kd in experiment [1] was 539 nM.

B2: R04 minibody (scFv-Fc) (Fc fusion)
chain: EIVMTQSPSSLSASVGDRVTITCQASQDISNYLNWCQQKPGKAPKLLIYDASNLETGVPSRFSGSGSGTGFTFTISSLQPEDFATYYCQQSYSTPYTFGQGTKVEIKSGGSTITSYNVNYTKLSSSGAQVQLQQSGPGLVKSSQTLSLTCAISGDSVSSNGAAWHWIRQSPSRGLEWLGRTYYRSGWYNDYAVSVKSRITINQDTSKNQFSLQLNSVTPEDTAVYFCAREGGGGRMDVWSQGTTVTVSS
For the molecule B2, the dissociation constant Kd in experiment [2] and in experiment [1] was 128 nM throughout.

B3: E08 human minibody (scFv-human Fc) (Fc fusion)
scFv-Fc: SYVLTQPPSVSVAPGKTARITCGGNNIGWKSVHWYQQKPGQAPVLVVYDDSDRPSGIPERFSGSNSGNTATLTISRVEAGDEADYYCQVWDSSSDLVVFGGGTKLTVLSGGSTITSYNVYYTKLSSSGTQVQLVQSGAEVKKPGSSVKVSCKASGGTFSSYAISWVRQAPGQGLEWMGGIIPIFGTANYAQKFQGRVTITADESTSTAYMELSSLRSEDTAVYYCARASGRWLQFWHYYGMDVWGQGTTVTVSS
With B3, the binding result in experiment [3] is “binds”.

B4: D04 human minibody (scFv-human Fc) (Fc fusion)
scFv-Fc: SYVLTQPPSVSVAPGKTARITCGGNNIGWKSVHWYQQKPGQAPVLVVYNDNDRPSGVPERFSGSNSGNTATLTISRVVAGDEADYYCQVWDSSSDHVLFGGGTKLTVLSGGSTITSYNVYYTKLSSSGTQVQLVQSGAEVKKPGSSVKVSCKASGGTFSSYAISWVRQAPGQGLEWMGGIIPIFGTANYAQKFQGRVTITADESTSTAYMELSSLRSEDTAVYYCARASGRWLQFWHYYGMDVWGQGTTVTVS
Regarding B4, the binding result in experiment [3] is given as “no binding”.

B5: D04 minibody (scFv-Fc) (Fc fusion)
chain: B4 scFv-Fc
Turning to B5, in experiment [1], binding was put at a Kd of 124 nM.

B6: B10 human minibody (scFv-human Fc) (Fc fusion)
scFv-Fc: QSVVTQPPSVSGAPGQRVTISCTGSSSNIGSRTVNWYQQLPGTAPKLLIYANNQRPSGVPDRFSGSKSGTSASLAISGLQSEDEADYYCAAWDDSLNGYVFGTGTKLTVLSGGSTITSYNVYYTKLSSSGTQVQLQQSGPGLVKPSQTLSLTCAISGDSVSSNSATWNWIRQSPSRGLEWLGRTYYGSKWHSDYAVSVKSRITINPDTSKNQISLHLNPVTPEDTAVYYCARGRSYAFDIWDQGTMVTVSS
For the molecule B6, the binding result in experiment [3] is “no binding”.

B7: B10 minibody (scFv-Fc) (Fc fusion)
chain: B6 scFv-Fc
In turn, B7 gave a Kd in experiment [1] of 344 nM.

B8: H01 human minibody (scFv-human Fc) (Fc fusion)
scFv-Fc: QPGLTQPPSVSLAPGQTARITCGGNNIGSKSVHWYQQKPGQAPVLVVYDDSDRPSGIPERFSGSNAGNTATLTISRVEAGDEADYYCQVWDSRSDQYVFGTRTKLTVLSGGSTITSYNVYYTKLSSSGAQVTLKESGPVLVKPTETLTLTCTVSGFSLSNARMGVSWIRQPPGKALEWLAHIFSNGEKSYSTSLKSRLTISKDTSKSQVVLTMTNMDPVDTATYYCARTLDYYDSSGYLVGGAFDIWGQGTMVTVSS
As to B8, the binding result in experiment [3] is “no binding”.

B9: D07 minibody (scFv-Fc) (Fc fusion)
chain: B8 scFv-Fc with Q1S, P2Y, G3E, L12V, Q16E, I20M, S29T, S31G
In the case of B9, in experiment [1], binding was put at a Kd of 134 nM.

B10: D07 human minibody (scFv-human Fc) (Fc fusion)
scFv-Fc: B8 scFv-Fc with Q1S, P2Y, G3E, L12V, Q16E, I20M, S29T, S31G
Regarding B10, in experiment [3], the binding result is given as “no binding”.

B11: H01 minibody (scFv-Fc) (Fc fusion)
chain: B8 scFv-Fc
As for B11, the Kd in experiment [2] and in experiment [1] was 281 nM in each case.

B12: G07 minibody (scFv-Fc) (Fc fusion)
chain: QSVLIQPPSASGTPGQRVTISCSGSNSNFGSNSVSWYQQRPGTAPKLLIEGNNQRPSGVPERFSGSKSGTSASLAISGLQSEDEAEYSCASWDDSLNAFVFGPGTKLTVLSGGSAITSYNVYYTKLSSSGTQVQLVQSGAEVKKPGESLKISCKGSGYSFTSYWIGWVRQMPGKGLEWMGIIYPGDSDIRYSPSFQGQVTISADKSFSSAYLQWSSLKASDTAMYYCARLGATGAFDIWGQGTTVTVSS
In experiment [2], B12 showed a Kd of 63900 nM.

B13: D11 minibody (scFv-Fc) (Fc fusion)
chain: SYELTQPPSVSVAPGQTARITCGGNNIGSKSVHWYQQKPGQAPVLVVYDDSDRPSGIPERFSGSNSGNTATLTISGTQAMDEADYYCQAWDSSTAYVFGSGTKLTVLSGGSTITSYNVYYTKLSSSGTQVQLEESGGGLVQPGGSLRLSCAASGFTFSNYAMSWVRQAPGKGLEWVSAISGSGGATFHADSVKGRFTISRDNSKNTLYLQMNSLRAEDTAVYYCARRVGYDSSGYYWSDAFDIWGQGTMVTVSS
Molecule B13 displayed a dissociation constant (Kd) in experiment [1] of 798 nM. In other words, the sub-micromolar range.

B14: H03 minibody (scFv-Fc) (Fc fusion)
chain: SYELTQPPSVSVAPGQTARITCGGNNIGSKSVHWYQQKPGQAPVLVIYYDSDRPSGIPERFSGSNSGNTATLTISRVEAGDEADYYCQVWDSSSALYVFGTRTKVTVLSGGSTITSYNVYYTKLSSSGTQVQLVESGGGLVQPGRSLRLSCAASGFTFDDYAMHWVRQAPGKGLEWVSGISWNSGSIGYADSVKGRFTISRDNAKNSLYLQVNSLRAEDTAVYYCARELIVGTTSPQTDAFDIWGQGTMVTVSS
B14 displayed a Kd in experiment [1] of 117 nM. This Kd lies about 6.8-fold lower than the previous one.

B15: H02 minibody (scFv-Fc) (Fc fusion)
chain: QSVVTQPPSVSAAPGQKVTISCSGSSSNIGNNYVSWYQQLPGTAPKLLIYRDTQRPSGVPDRFSGSKSGTSASLAISGLRSEDEADYYCATWDKSLSGPVFGGGTKVTVLSGGSTITSYNVYYTKLSSSGTQVQLQQSGPGLVKPSQTLSLTCAISGDSVSSNSAAWNWIRQSPSRGLEWLGRTYYRSKWYNDYAVSVKSRIIINPDTSKNQFSLQLNSVTPEDTAVYYCARQDNNPYYGLDVWGQGTTVTVSS
B15 registered a Kd in experiment [1] of 15.5 nM.

B16: D10 human minibody (scFv-human Fc) (Fc fusion)
scFv-Fc: QSVVTQPPSASGSPGQTVTISCSGNSANIGGNPVNWYQQLPGTAPKLLIYSNNQRPSGVPDRFSGSKSGISASLAISGLQSEDEADYYCAAWDDSLNGVIFGGGTKLTVLSGGSTITSYNVYYTKLSSSGTQVQLVQSGAEVKKPGESLKISCKGSGYSFTSYWIGWVRQMPGKGLEWMGIIYPGDSDTRYSPSFQGQVTISADKSISTAYLQWSSLKASDTAMYYCARRHSGSYSGAFDIWGQGTMVTVSS
With B16, the binding result in experiment [3] is reported as “no binding”.

B17: B04 human minibody (scFv-human Fc) (Fc fusion)
scFv-Fc: SYVLTQPPSVSVAPGKTARITCGGNNIGIRSVHWYQQKPGQAPVLVIYYDSDRPSGIPERFSGSKSGNTATLTISRVEAGDEADYYCQVWDSSSDHPVFGGGTKLTVLSGGSTITSYNVYYTKLSSSGTQVQLVESGAEVKKPGASVKVSCKASGYTFTRYYMHWVRQAPGQGLEWMGIINPSGGTTSYAQKFQGRVTMTRDTSTSTVYMELSSLRSEDTAVYYCARSFGELTSFDYWGQGTLVTVSS
As to B17, the binding result in experiment [3] is “no binding”.

B18: B04 minibody (scFv-Fc) (Fc fusion)
chain: B17 scFv-Fc
B18: the Kd in experiment [2] and in experiment [1] was 56.8 nM in each case.

B19: R04 IgG1 (antibody, V domains shown)
VH: QVQLQQSGPGLVKSSQTLSLTCAISGDSVSSNGAAWHWIRQSPSRGLEWLGRTYYRSGWYNDYAVSVKSRITINQDTSKNQFSLQLNSVTPEDTAVYFCAREGGGGRMDVWSQGTTVTVSS
VL: EIVMTQSPSSLSASVGDRVTITCQASQDISNYLNWCQQKPGKAPKLLIYDASNLETGVPSRFSGSGSGTGFTFTISSLQPEDFATYYCQQSYSTPYTFGQGTKVEIK
B19: the Kd in experiment [2] and in experiment [1] was 190000 nM throughout.

Values taken from patent publication US12018066 (TRIAD NATIONAL SECURITY, dated 2024).
